From patent publication US20250243282A1 (TRUEBINDING, published 2025)

How the values were obtained:
[1] = target: T1, human Gal3 protein (recombinant human Galectin-3) (human, UniProt P17931 2-250); experiment: BLI binding activity, long-term stability 5°C, 3 months
T1 construct: also called hGal3; hGAL3

[2] = target: T1, human Gal3 protein (recombinant human …); experiment: BLI binding activity, long-term stability 5°C, 0 months
[3] = target: T1, human Gal3 protein (recombinant human …); experiment: BLI binding activity, accelerated stability 25°C/60% RH, 1 month
[4] = target: T1, human Gal3 protein (recombinant human …); experiment: ELISA biological activity, long-term stability 5°C, 0 months; 5° C., 0 months
[5] = target: T1, human Gal3 protein (recombinant human …); experiment: ELISA blocking assay (blocked partner not stated), in-use stability bag #1, 2 h
[6] = target: T1, human Gal3 protein (recombinant human …); experiment: ELISA blocking assay (blocked partner not stated), in-use stability bag #2, 0.5 h
[7] = target: T1, human Gal3 protein (recombinant human …); experiment: ELISA biological activity, accelerated stability 25°C/60% RH, 3 months
[8] = target: T1, human Gal3 protein (recombinant human …); experiment: ELISA biological activity, long-term stability 5°C, 1 month
[9] = target: T1, human Gal3 protein (recombinant human …); experiment: ELISA biological activity, long-term stability 5°C, 3 months
[10] = target: mouse Gal3 (mouse, UniProt P16110 2-264); experiment: method not stated (FIG. 20)
[11] = target: T1, human Gal3 protein (recombinant human …); experiment: method not stated (FIG. 20)
[12] = target: T1, human Gal3 protein (recombinant human …); experiment: ELISA blocking assay (blocked partner not stated), in-use stability bag #1, 1 h
[13] = target: T1, human Gal3 protein (recombinant human …); experiment: BLI binding activity, long-term stability 5°C, 1 month
[14] = target: T1, human Gal3 protein (recombinant human …); experiment: ELISA blocking assay (blocked partner not stated), in-use stability bag #2, 4 h
[15] = target: T1, human Gal3 protein (recombinant human …); experiment: ELISA blocking assay (blocked partner not stated), in-use stability bag #2, 1 h
[16] = target: T2, Recombinant human Gal3 (rhGal3) (TrueBinding, #QC200361) (human, UniProt P17931 2-250); experiment: cell-based or functional assay
[17] = target: T1, human Gal3 protein (recombinant human …); experiment: BLI binding activity, accelerated stability 25°C/60% RH, 0 months
[18] = target: T1, human Gal3 protein (recombinant human …); experiment: BLI binding activity, accelerated stability 25°C/60% RH, 3 months
[19] = target: T1, human Gal3 protein (recombinant human …); experiment: ELISA blocking assay (blocked partner not stated), in-use stability bag #1, 0.5 h
[20] = target: T1, human Gal3 protein (recombinant human …); experiment: ELISA biological activity, accelerated stability 25°C/60% RH, 0 months
[21] = target: T1, human Gal3 protein (recombinant human …); experiment: ELISA blocking assay (blocked partner not stated), in-use stability bag #2, 2 h
[22] = target: T1, human Gal3 protein (recombinant human …); experiment: ELISA blocking assay (blocked partner not stated), in-use stability bag #2, 0 h
[23] = target: T1, human Gal3 protein (recombinant human …); experiment: ELISA blocking assay (blocked partner not stated), in-use stability bag #1, 0 h; Bag #1, 0 h
[24] = target: T2, Recombinant human Gal3 (rhGal3) …; experiment: cell-based or functional assay; remark: listed apart in the source
[25] = target: T1, human Gal3 protein (recombinant human …); experiment: ELISA biological activity, accelerated stability 25°C/60% RH, 1 month
[26] = target: T1, human Gal3 protein (recombinant human …); experiment: ELISA blocking assay (blocked partner not stated), in-use stability bag #1, 4 h

T1 sequence (P17931 2-250 limits assumed): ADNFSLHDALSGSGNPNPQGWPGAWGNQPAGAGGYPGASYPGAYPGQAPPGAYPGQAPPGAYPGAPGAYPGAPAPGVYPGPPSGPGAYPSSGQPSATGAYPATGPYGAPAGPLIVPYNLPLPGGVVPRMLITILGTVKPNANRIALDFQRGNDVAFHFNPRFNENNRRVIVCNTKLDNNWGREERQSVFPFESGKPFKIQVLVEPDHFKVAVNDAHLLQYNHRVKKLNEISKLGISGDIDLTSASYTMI
mouse Gal3, sequence (P16110 2-264 limits assumed): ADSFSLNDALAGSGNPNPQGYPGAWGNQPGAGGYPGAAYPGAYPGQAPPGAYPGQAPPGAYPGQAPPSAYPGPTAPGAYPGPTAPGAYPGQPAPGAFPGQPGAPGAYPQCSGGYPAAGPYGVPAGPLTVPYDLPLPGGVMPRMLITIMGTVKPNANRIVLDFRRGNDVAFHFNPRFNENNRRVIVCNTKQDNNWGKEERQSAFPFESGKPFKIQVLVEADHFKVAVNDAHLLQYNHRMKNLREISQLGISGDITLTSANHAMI

B1: TB006 (antibody, human IgG4 S228P, kappa, V domains shown)
VH: QVQLVQSGAEVKKPGASVKVSCKASGYSFTNYYMHWVRQAPGQRLEWMGWIYPGSGNTNYNEKFQGRVTITADTSASTAYMELSSLRSEDTAVYYCSTAPGGFDVWGQGTTVTVSS
VL: DIVMTQTPLSLSVTPGQPASISCKSSKSLLHSDGITYLYWYLQKPGQSPQLLIYRMSNLASGVPDRFSGSGSGTDFTLKISRVEAEDVGVYYCAQMLEFPLTFGQGTKLEIKR
notes: also called 4A11.H3L1; IMT006a
With B1 the Kd [1] was 3 nM, the Kd [2] was 3 nM and the Kd [3] was 2.5 nM. It also gave an IC50 [4] of 2.5 µg/mL, an IC50 [5] of 1.71 µg/mL and an IC50 [6] of 1.66 µg/mL. It also gave an IC50 [7] of 1.5 µg/mL, an IC50 [8] of 1.8 µg/mL and an IC50 [9] of 1.5 µg/mL. It also gave a Kd [10] of 40000 nM, a Kd [11] of 8.9 nM and an IC50 [12] of 1.43 µg/mL. It also gave a Kd [13] of 2.5 nM, an IC50 [14] of 1.35 µg/mL and an IC50 [15] of 1.63 µg/mL. For the same binder, the “IC50 of blocking IL-6 secretion by HL60-derived neutrophils (rhGal3 + LPS)” value [16] was 33.7 nM, the “IC50 of blocking TNFα secretion by HL60-derived neutrophils (rhGal3 + LPS)” value [16] was 11.1 nM and the Kd [17] was 3 nM. It also gave a Kd [18] of 3.1 nM, an IC50 [19] of 1.34 µg/mL and an IC50 [20] of 2.5 µg/mL. For the same binder, the IC50 [21] was 1.67 µg/mL, the IC50 [22] was 1.05 µg/mL and the IC50 [23] was 1.01 µg/mL. The “% inhibition of CD62L shedding” value [24] was 76.1%, the IC50 [25] was 1.8 µg/mL and the IC50 [26] was 1.41 µg/mL.
